B1: z1A P box (dsDNA)
DNA 1: GGCTATCGTTACACATGTGTAAAGGTATTGCATCACACCATT
DNA 2: AATGGTGTGATGCAATACCTTTACACATGTGTAACGATAGCC
B2: z1C P-box (dsDNA)
DNA 1: TCATGTTAATGTTGTCACATGTGTAAAGGTGAAGAGATCTTGCATGT
DNA 2: ACATGCAAGATCTCTTCACCTTTACACATGTGACAACATTAACATGA
B3: z1A O2-like box (dsDNA)
DNA 1: ATCAAGTTTGTCTTGCTTACGTATAAATTATAACCCAACA
DNA 2: TGTTGGGTTATAATTTATACGTAAGCAAGACAAACTTGAT
B4: z1C O2-box (dsDNA)
DNA 1: GAGATCTTGCATGTCATTCCACGTAGATAAAAAGAATGCATATATA
DNA 2: TATATATGCATTCTTTTTATCTACGTGGAATGACATGCAAGATCTC
B5: z1B-P3 (dsDNA)
DNA 1: AACTCAATCTACATAAGCACAAGGTCTAACATGTGTATAA
DNA 2: TTATACACATGTTAGACCTTGTGCTTATGTAGATTGAGTT
B6: z1B-P2 (dsDNA)
DNA 1: CAAAGCCAACTAGATACCACATCATCTCTAGCTTATCTTA
DNA 2: TAAGATAAGCTAGAGATGATGTGGTATCTAGTTGGCTTTG
B7: z1D-P1 (dsDNA)
DNA 1: TTTTGTGCAAATTGTTTTGTCGACATATAAAGTGTAAGATAAGAAA
DNA 2: TTTCTTATCTTACACTTTATATGTCGACAAAACAATTTGCACAAAA

For one data set, the target named is T1, PBF (prolamin-box binding factor) (Zea mays, UniProt O24463 1-328).
T1 sequence: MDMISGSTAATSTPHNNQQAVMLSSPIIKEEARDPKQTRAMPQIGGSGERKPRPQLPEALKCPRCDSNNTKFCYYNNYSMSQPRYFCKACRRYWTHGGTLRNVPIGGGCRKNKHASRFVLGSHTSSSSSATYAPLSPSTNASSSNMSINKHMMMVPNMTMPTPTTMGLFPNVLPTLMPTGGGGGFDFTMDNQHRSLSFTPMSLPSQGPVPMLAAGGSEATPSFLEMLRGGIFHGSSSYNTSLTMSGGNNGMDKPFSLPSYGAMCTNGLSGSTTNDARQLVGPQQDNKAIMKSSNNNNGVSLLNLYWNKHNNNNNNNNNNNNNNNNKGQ
The experiment in a line: EMSA.
Turning to B1, the binding result is recorded as “binds”.

Take B2: the binding result is listed as “binds”.

The target in a further data set is OHP1 (Zea mays, UniProt Q03462 1-405). The experiment in a line: EMSA.
In the case of B3, the binding result is recorded as “binds”.

As for B4, the binding result is “binds”.

Regarding B5, the binding result is on record as “binds”.

B6: the binding result is “binds”.

As to B7, the binding result was “binds”.
